Molecular target: purified monomeric human β-actin (G-actin) (human, UniProt P60709 1-375)
Experiment: pull-down

B1: sv1_(360–420ARM) peptide (peptide)
peptide: not shown
modifications: amino-terminal biotin
binding result: binds

Source: PMC3286128 (Biochemistry, 2012)
